Measured values: patent US20230192890A1 (published 2023)

T1: Ala mutant SEQ ID NO: 34 (human)
T1 peptide: EENMDDQAMQDEMEIGY

T2: Ala mutant SEQ ID NO: 35 (human)
T2 peptide: EENMDDQWAQDEMEIGY

T3: Ala mutant having 3-amino acid substitution, SEQ ID NO: 45 (human)
T3 peptide: EENAAAQWMQDEMEIGY

T4: Ala mutant having 3-amino acid substitution, SEQ ID NO: 46 (human)
T4 peptide: EENMDDAAAQDEMEIGY

T5: Ala mutant SEQ ID NO: 32 (human)
T5 peptide: EENMDAQWMQDEMEIGY


Columns and labels:
[1] = target: T6, full-length recombinant human PAD4 (human, UniProt Q9UM07 1-663); assay: Biacore T200, human PAD4 as analyte
T6 construct: also called peptidylarginine deiminase 4

[2] = target: T6, full-length recombinant human PAD4; assay: Biacore T200, antibody captured by anti-human antibody, human PAD4 as analyte
From the text: The humanized anti-PAD4 antibodies derived from G8 and H7 were subjected to Biacore (GE Healthcare, Biacore T200) assay to evaluate their affinity. At that time, the combination of the frameworks was such that the H-chain framework was H4.00 and the L-chain framework was L4.29. The class of each antibody used was IgG1κ. Full-length recombinant human PAD4 was used as an antigen. A Human Antibody Capture kit (GE Healthcare, BR-1008-39) was used for the affinity assay. Specifically, in accordance with the standard protocol provided by the manufacture, NHS/EDC was used and an amine coupling method, in which a free carboxyl group is fixed on a surface of a CM5 chip, was used to immobilize a rabbit anti-human polyclonal antibody on the surface of a CM5 chip. Next, the humanized anti-PAD4 antibodies were each captured by the rabbit anti-human polyclonal antibody. Human PAD4 at each concentration was subjected to Biacore T200 measurement to create a kinetic sensorgram.

[3] = target: full-length recombinant human or mouse PAD4 (Example 4; which of the two is not told for the result); assay: cell-based or functional assay
Ala mutant SEQ ID NO: 34 = target: T1, Ala mutant SEQ ID NO: 34; assay: ELISA, peptide on plate (10 ug/mL)
Ala mutant SEQ ID NO: 35 = target: T2, Ala mutant SEQ ID NO: 35; assay: ELISA, peptide on plate (10 ug/mL)
[4] = target: T3, Ala mutant having 3-amino acid …; assay: ELISA, peptide on plate (10 ug/mL)
[5] = target: T4, Ala mutant having 3-amino acid …; assay: ELISA, peptide on plate (10 ug/mL)
[6] = target: T6, full-length recombinant human PAD4; assay: ELISA, human PAD4 on plate, antibody 1 ug/mL
[7] = target: T6, full-length recombinant human PAD4; assay: ELISA, human PAD4 on plate, antibody 0.25 ug/mL
[8] = target: T6, full-length recombinant human PAD4; assay: ELISA, human PAD4 on plate, antibody 0.0625 ug/mL
[9] = target: T6, full-length recombinant human PAD4; assay: ELISA, human PAD4 on plate, antibody 0.015625 ug/mL
[10] = target: T6, full-length recombinant human PAD4; assay: ELISA, human PAD4 on plate, antibody 0.0002441 ug/mL
[11] = target: T6, full-length recombinant human PAD4; assay: ELISA, human PAD4 on plate, antibody 0.0009766 ug/mL
[12] = target: T6, full-length recombinant human PAD4; assay: ELISA, human PAD4 on plate, antibody 0.0039063 ug/mL
[13] = target: T6, full-length recombinant human PAD4; assay: ELISA, human PAD4 on plate, antibody 6.104E-05 ug/mL
Ala mutant SEQ ID NO: 32 = target: T5, Ala mutant SEQ ID NO: 32; assay: ELISA, peptide on plate (10 ug/mL)

T6 sequence (Q9UM07 whole entry): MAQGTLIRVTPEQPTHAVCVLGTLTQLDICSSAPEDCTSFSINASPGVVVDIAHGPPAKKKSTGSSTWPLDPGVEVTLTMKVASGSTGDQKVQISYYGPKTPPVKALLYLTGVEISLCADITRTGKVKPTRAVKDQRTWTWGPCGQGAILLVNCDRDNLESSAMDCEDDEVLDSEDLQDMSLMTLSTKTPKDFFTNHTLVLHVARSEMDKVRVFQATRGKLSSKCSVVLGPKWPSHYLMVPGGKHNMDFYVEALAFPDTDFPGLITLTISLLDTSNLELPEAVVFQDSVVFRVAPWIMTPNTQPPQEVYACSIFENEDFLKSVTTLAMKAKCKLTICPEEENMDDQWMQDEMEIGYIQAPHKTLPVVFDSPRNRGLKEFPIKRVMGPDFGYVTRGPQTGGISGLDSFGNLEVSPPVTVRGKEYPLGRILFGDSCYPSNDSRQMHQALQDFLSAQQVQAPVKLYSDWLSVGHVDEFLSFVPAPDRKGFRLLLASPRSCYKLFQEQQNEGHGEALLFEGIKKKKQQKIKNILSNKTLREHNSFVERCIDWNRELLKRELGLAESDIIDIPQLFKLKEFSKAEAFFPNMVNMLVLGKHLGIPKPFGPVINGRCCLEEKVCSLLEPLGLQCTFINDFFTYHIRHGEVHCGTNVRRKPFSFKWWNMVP

Binder | Kd [1] [nM] | kon [2] [M⁻¹ s⁻¹] | Relative citrullination activity [3] | absorbance 490 nm/630 nm (Ala mutant SEQ ID NO: 34) [OD] | absorbance 490 nm/630 nm (Ala mutant SEQ ID NO: 35) [OD] | absorbance 490 nm/630 nm [4] [OD] | absorbance 490 nm/630 nm [5] [OD] | absorbance 490 nm/630 nm [6] [OD] | absorbance 490 nm/630 nm [7] [OD] | absorbance 490 nm/630 nm [8] [OD] | absorbance 490 nm/630 nm [9] [OD] | absorbance 490 nm/630 nm [10] [OD] | absorbance 490 nm/630 nm [11] [OD] | absorbance 490 nm/630 nm [12] [OD] | absorbance 490 nm/630 nm [13] [OD] | absorbance 490 nm/630 nm (Ala mutant SEQ ID NO: 32) [OD]
Humanized Ab #G8-H4.00/L4.29 (IgG1κ) (antibody, V domains shown, Full-length heavy and light chains; also called humanized anti-PAD4 antibody derived from G8; G8 VH H4.00 / VL L4.29) VH: not shown VL: SYELTQPPSVSVSPGQTARITCSGGNRNYYYGWYQQKPGQAPVTVIYANDKRPSGIPERFSGSNSGSTTTLTISGVQAEDEADYYCGTADTGKYVFGGGTKLTVLG | ≤ 9 | – | – | – | – | – | – | – | – | – | – | – | – | – | – | –
Humanized Ab #H7-H4.00/L4.29 (IgG1κ) (antibody, V domains shown, Full-length heavy and light chains; also called humanized anti-PAD4 antibody derived from H7) VH: not shown VL: SYELTQPPSVSVSPGQTARITCSGGSGRYYYGWYQQKPGQAPVTVIYSSTHRPSGIPERFSGSNSGSTTTLTISGVQAEDEADYYCGTADSSSYVFGGGTKLTVLG | ≤ 9 | 613000 | – | – | – | – | – | – | – | – | – | – | – | – | – | –
A11 (antibody, IgG1, V domains shown, Chicken variable regions in mouse chimeric antibody (IgG1) expression vectors; also called anti-PAD4 antibody A11; A11 etc) VH: AVTLDESGGGLQTPGGALSLVCKASGFDFSSYGMGWMRQAPGKGLEYVAAIRNDGSWTGYGAAVKGHATISRDNGQSTVRLQLNNLRAEDTGTYYCAKTTGSRGGSIDAWGHGTEVIVS VL: ASTQPSSVSANLGGTVEITCSGGGRYYYGWYQQKSPGSAPVTVIYANDKRPSDIPSRFSGSKSGSTGTLTITGVQAEDEAVYFCGSAETSSYVFGAGTTLTVL | ≤ 9 | – | 64 relative to PBS = 100 | 0.021 | 0.023 | 0.039 | 0.043 | 2.15 | 2.11 | 2.15 | 2.08 | 0.206 | 0.511 | 1.31 | 0.063 | –
G8 (antibody, IgG1, V domains shown, Chicken variable regions in mouse chimeric antibody (IgG1) expression vectors; also called anti-PAD4 antibody G8; A11 etc) VH: AVTLDESGGGLQTPGGALSLVCKASGFTFSTYAMGWMRQAPGKGLEYVAAIRNDGSWTGYGAAVKGRATILRDNGQSTVRLQLSNLRAEDTGTYYCAKYTGSSGGSIGAWGHGTEVIVS VL: ASTQPSSVSANLGGTVEITCSGGNRNYYYGWYQQKSPGSAPVTLIYANDKRPSNIPSRFSGSKSGSTGTLTITGVQAEDEAVYFCGTADTGKYVFGAGTTLTVL | ≤ 9 | – | 63 relative to PBS = 100 | 0.04 | 0.233 | 0.065 | – | 2.12 | 2.1 | 2.12 | 2.08 | 0.184 | 0.544 | 1.34 | 0.1 | 0.083
H7 (antibody, IgG1, V domains shown, Chicken variable regions in mouse chimeric antibody (IgG1) expression vectors; also called anti-PAD4 antibody H7; A11 etc) VH: AVTLDESGGGLQTPGGALSLVCKASGFTFSTYAMGWMRQAPGKGLEYVAAIRNDGSWTGYGAAVKGRATILRDNGQSTVRLQLSNLRAEDTGTYYCAKYTGSSGGSIGAWGHGTEVIVS VL: ASTQPSSVSANPGGTVEITCSGGSGRYYYGWYQQKSPGSAPVTVIYSSTHRPSNIPSRFSGSKSGSTATLTITGVQAEDEAVYFCGTADSSSYVFGAGTTLTVL | ≤ 9 | – | 35 relative to PBS = 100 | 0.066 | 0.065 | 0.016 | 0.044 | 2.11 | 2.11 | 2.12 | 2.07 | 0.217 | 0.537 | 1.35 | 0.111 | 0.033
G6 (antibody, IgG1, V domains shown, Chicken variable regions in mouse chimeric antibody (IgG1) expression vectors; also called anti-PAD4 antibody G6; A11 etc) VH: AVTLDESGGGLQTPGGALSLVCKASGFTFSSYGMEWVRQAPGKGLEYVAAIRNDGSWTGYGAAVKGRATISRDDGQSTLRLQLNNLRAEDTATYYCAKTTGSSGGSIDAWGHGTEVIVS VL: ASTQPSSVSANLGETVKITCSGGGNYYYGWYQQKSPGSAPVTLIYANDKRPSNIPSRFSGSKSGSTGTLTITGVQAEDEAVYFCGTADTGKYVFGAGTTLTVL | ≤ 9 | – | 69 relative to PBS = 100 | 0.042 | 0.015 | 0.018 | 0.083 | 2.11 | 2.07 | 2.12 | 2.01 | 0.166 | 0.437 | 1.16 | 0.075 | 0.035
E9 (antibody, IgG1, V domains shown, Chicken variable regions in mouse chimeric antibody (IgG1) expression vectors; also called anti-PAD4 antibody E9; A11 etc) VH: AVTLDESGGGLQTPGGTLSLVCKGSGFTFSSYGMGWMRQAPGKGLEYVAAIRNDGSWTGYGSAVKGRATISRDNGQSTVRLQLNNLRAEDTATYYCAKTSGSSGGSVDAWGHGTEVIVS VL: ASTQPSSVSANLGGTVEITCSGGGRYYYGWYQQKSPGSAPVTVIYANDKRPSDIPSRFSGSKSGSTGTLTITGVQAEDEAVYFCGSAETSSYVFGAGTTLTVL | ≤ 9 | – | 59 relative to PBS = 100 | 0.047 | 0.017 | 0.022 | 0.027 | 2.11 | 2.08 | 2.12 | 2.08 | 0.176 | 0.489 | 1.36 | 0.07 | –
G9 (antibody, IgG1, V domains shown, Chicken variable regions in mouse chimeric antibody (IgG1) expression vectors; also called anti-PAD4 antibody G9; A11 etc) VH: AVTLDESGGGLQTPGGALSLVCKASGFTFSTYAMGWMRQAPGKGLEYVAAIRNDGSWTGYGAAVKGRATILRDNGQSTVRLQLSNLRAEDTGTYYCAKYTGSSGGSIGAWGHGTEVIVS VL: AVTQPASVSANLGGTVEITCSGGGRYYYGWYQQKSPGSAPVTVIYANDKRPSDIPSRFSGSKSGSTGTLTITGVQAEDEAVYFCGSAETSSYVFGAGTTLTVL | ≤ 9 | – | 68 relative to PBS = 100 | 0.038 | 0.253 | 0.019 | – | 2.1 | 2.08 | 2.11 | 2.07 | 0.187 | 0.534 | 1.36 | 0.082 | 0.039
